Test results published in patent publication US20230212288A1 (published 2023).

B1: 418_01_C05 (bispecific antibody)
chain: DIQLTQTPASLAVSLGQRATISCKASQSVDYDGDSYLNWYQQIPGQPPKLLIYDASNLVSGIPPRFSGSGSGTDFTLNIHPVEKVDAATYHCQQSTEDPWTFGGGTKLEIKGGSGGAMAEVQLVESGGGVVQPGRSLRLSCAASGFTFSSYGMHWVRQAPGKGLEWVSYINSRSSTIYYADSVKGRFTISRDNAKNSLYLQMNSLRDEDTAVYYCAKDKPLSGYAFDIWGQGTTVTVSSGGGGSGGGGSGGGASNFMLTQPHSVSESPGKTVTISCTRSSGSIASNFVQWYQQRPGRAPTIVIFDDDQRPSGVPDRFSGSIDRSSDSASLSISGLKTEDEADYYCQSYATRTQGVVFGGGTKVTVLGQPAAAGGGGSQVQLQQSGAELVRPGSSVKISCKASGYAFSSYWMNWVKQRPGQGLEWIGQIWPGDGDTNYNGKFKGKATLTADESSSTAYMQLSSLASEDSAVYFCARRETTTVGRYYYAMDYWGQGTSVTVSSASAAVECPPCPAPPVAGPSVFLFPPKPKDTLMISRTPEVTCVVVDVSHEDPEVQFNWYVDGVEVHNAKTKPREEQFNSTFRVVSVLTVVHQDWLNGKEYKCKVSNKGLPAPIEKTISKTKGQPREPQVYTLPPSREEMTKNQVSLTCLVKGFYPSDIAVEWESNGQPENNYKTTPPMLDSDGSFFLYSKLTVDKSRWQQGNVFSCSVMHEALHNHYTQKSLSLSPGK
B2: 309_01_G12 (bispecific antibody)
chain: DIQLTQTPASLAVSLGQRATISCKASQSVDYDGDSYLNWYQQIPGQPPKLLIYDASNLVSGIPPRFSGSGSGTDFTLNIHPVEKVDAATYHCQQSTEDPWTFGGGTKLEIKGGSGGAMAEVQLVQSGAEVKKPGASVKVSCKASGYTFTGYYMHWVRQAPGQGLEWMGRINPNSGGTNYAQKFQGRVTMTRDTSISTAYMELSRLRSDDAAVYYCARPSRYSNYVDWGQGTTVTVSSGGGGSGGGGSGGGASNFMLTQPHSVSESPGKTVTISCTRSSGSIASNYVQWYQQRPGSAPTTVIYDDDQRPSGVPDRFSGSIDRSSNSASLTISGLKTEDEADYYCQSYDNTNPWVFGGGTKLTVLGQPAAAGGGGSQVQLQQSGAELVRPGSSVKISCKASGYAFSSYWMNWVKQRPGQGLEWIGQIWPGDGDTNYNGKFKGKATLTADESSSTAYMQLSSLASEDSAVYFCARRETTTVGRYYYAMDYWGQGTSVTVSSASAAVECPPCPAPPVAGPSVFLFPPKPKDTLMISRTPEVTCVVVDVSHEDPEVQFNWYVDGVEVHNAKTKPREEQFNSTFRVVSVLTVVHQDWLNGKEYKCKVSNKGLPAPIEKTISKTKGQPREPQVYTLPPSREEMTKNQVSLTCLVKGFYPSDIAVEWESNGQPENNYKTTPPMLDSDGSFFLYSKLTVDKSRWQQGNVFSCSVMHEALHNHYTQKSLSLSPGK
B3: 418_03_E12 (bispecific antibody)
chain: DIQLTQTPASLAVSLGQRATISCKASQSVDYDGDSYLNWYQQIPGQPPKLLIYDASNLVSGIPPRFSGSGSGTDFTLNIHPVEKVDAATYHCQQSTEDPWTFGGGTKLEIKGGSGGAMAQVQLVESGGGVVQPGRSLRLSCAASGFTFSSYGMHWVRQAPGKGLEWVSSISSSSSYIYYADSVKGRFTISRDNAKNSLYLQMNSLRADDTAVYYCARRSFSSVFADYWGQGTLVTVSSGGGGSGGGGSGGGASNFMLTQPHSVSESPGKTVTISCTRSRGSIASNYVQWYQQRPGRAPTIVIFDDDQRPSGVPDRFSGSIDRSSDSASLRISGLKTEDEADYYCQSYATRSQSVVFGGGTKLTVLGQPAAAGGGGSQVQLQQSGAELVRPGSSVKISCKASGYAFSSYWMNWVKQRPGQGLEWIGQIWPGDGDTNYNGKFKGKATLTADESSSTAYMQLSSLASEDSAVYFCARRETTTVGRYYYAMDYWGQGTSVTVSSASAAVECPPCPAPPVAGPSVFLFPPKPKDTLMISRTPEVTCVVVDVSHEDPEVQFNWYVDGVEVHNAKTKPREEQFNSTFRVVSVLTVVHQDWLNGKEYKCKVSNKGLPAPIEKTISKTKGQPREPQVYTLPPSREEMTKNQVSLTCLVKGFYPSDIAVEWESNGQPENNYKTTPPMLDSDGSFFLYSKLTVDKSRWQQGNVFSCSVMHEALHNHYTQKSLSLSPGK
B4: 418_03_H01 (bispecific antibody)
chain: DIQLTQTPASLAVSLGQRATISCKASQSVDYDGDSYLNWYQQIPGQPPKLLIYDASNLVSGIPPRFSGSGSGTDFTLNIHPVEKVDAATYHCQQSTEDPWTFGGGTKLEIKGGSGGAMAQVQLQQWGAGLLKPSETLSLTCAVYGGSFSRYYWSWIRQSPGKGLEWIGEIKHRGRTNYNPSLKSRVTMSVDTSKNQFSLQLRSVTAADTAVYYCARVYSSGWFSYWGQGTLVTVSSGGGGSGGGGSGGGASNFMLTQPHSVSESPGKTVTISCTRSSGSIARNYVQWYQQRPGSAPTTVIYEDNQRPSGVPDRFSGSIDSSSNSASLTISGLKTEDEADYYCQSYDGSNWVFGGGTKVTVLGQPAAAGGGGSQVQLQQSGAELVRPGSSVKISCKASGYAFSSYWMNWVKQRPGQGLEWIGQIWPGDGDTNYNGKFKGKATLTADESSSTAYMQLSSLASEDSAVYFCARRETTTVGRYYYAMDYWGQGTSVTVSSASAAVECPPCPAPPVAGPSVFLFPPKPKDTLMISRTPEVTCVVVDVSHEDPEVQFNWYVDGVEVHNAKTKPREEQFNSTFRVVSVLTVVHQDWLNGKEYKCKVSNKGLPAPIEKTISKTKGQPREPQVYTLPPSREEMTKNQVSLTCLVKGFYPSDIAVEWESNGQPENNYKTTPPMLDSDGSFFLYSKLTVDKSRWQQGNVFSCSVMHEALHNHYTQKSLSLSPGK
B5: 309_01_A02 (bispecific antibody)
chain: DIQLTQTPASLAVSLGQRATISCKASQSVDYDGDSYLNWYQQIPGQPPKLLIYDASNLVSGIPPRFSGSGSGTDFTLNIHPVEKVDAATYHCQQSTEDPWTFGGGTKLEIKGGSGGAMAEVQLVESGGGLVKPGGSLRLSCAASGFTFSSYSMNWVRQAPGKGLEWVSSISSSSSYIYYADSVKGRFTISRDNAKNSLYLQMNSLRAEDTAVYYCARSSRIQAGMDVWGQGTLVTVSSGGGGSGGGGSGGGASNFMLTQPHSVSESPGKTVTISCTRSSGTIASTYVQWYQQRPGSSPTTVIYEDNQRPSGVPDRFSGSIDSSSNSASLTISGLKTEDAADYFCQSYDSNNRVFGGGTKVTVLGQPAAAGGGGSQVQLQQSGAELVRPGSSVKISCKASGYAFSSYWMNWVKQRPGQGLEWIGQIWPGDGDTNYNGKFKGKATLTADESSSTAYMQLSSLASEDSAVYFCARRETTTVGRYYYAMDYWGQGTSVTVSSASAAVECPPCPAPPVAGPSVFLFPPKPKDTLMISRTPEVTCVVVDVSHEDPEVQFNWYVDGVEVHNAKTKPREEQFNSTFRVVSVLTVVHQDWLNGKEYKCKVSNKGLPAPIEKTISKTKGQPREPQVYTLPPSREEMTKNQVSLTCLVKGFYPSDIAVEWESNGQPENNYKTTPPMLDSDGSFFLYSKLTVDKSRWQQGNVFSCSVMHEALHNHYTQKSLSLSPGK
B6: 410_01_C09 (bispecific antibody)
chain: DIQLTQTPASLAVSLGQRATISCKASQSVDYDGDSYLNWYQQIPGQPPKLLIYDASNLVSGIPPRFSGSGSGTDFTLNIHPVEKVDAATYHCQQSTEDPWTFGGGTKLEIKGGSGGAMAEVQLVQSGAEVKKPGASVKVSCKASGYTFTSYYMYWVRQAPGQGLEWMGRINPNSGGTNYAQKFQGRVTMTRDTSISTAYMELSRLRSDDTAVYYCARPSRYSNYVDWGQGTLVTVSSGGGGSGGGGSGGGASNFMLTQPHSVSESPGKTVTISCTRSSGSIASNYVQWYQQRPGSSPTTVIYEDNQRPSGVPDRFSGSIDSSSNSASLTISGLKTEDEADYYCQSYDSRWIWVSGGGTKVTVLGQPAAAGGGGSQVQLQQSGAELVRPGSSVKISCKASGYAFSSYWMNWVKQRPGQGLEWIGQIWPGDGDTNYNGKFKGKATLTADESSSTAYMQLSSLASEDSAVYFCARRETTTVGRYYYAMDYWGQGTSVTVSSASAAVECPPCPAPPVAGPSVFLFPPKPKDTLMISRTPEVTCVVVDVSHEDPEVQFNWYVDGVEVHNAKTKPREEQFNSTFRVVSVLTVVHQDWLNGKEYKCKVSNKGLPAPIEKTISKTKGQPREPQVYTLPPSREEMTKNQVSLTCLVKGFYPSDIAVEWESNGQPENNYKTTPPMLDSDGSFFLYSKLTVDKSRWQQGNVFSCSVMHEALHNHYTQKSLSLSPGK
B7: 410_01_C03 (bispecific antibody)
chain: DIQLTQTPASLAVSLGQRATISCKASQSVDYDGDSYLNWYQQIPGQPPKLLIYDASNLVSGIPPRFSGSGSGTDFTLNIHPVEKVDAATYHCQQSTEDPWTFGGGTKLEIKGGSGGAMAQVQLQQWGAGLLKPSETLSLTCAVYGGSFSGYYWSWIRQPPGKGLEWIGEINHSGSTNYNPSLKSRVTISVDTSKNQFSLKLSSVTAADTAVYYCARATRNGAFDYWGQGTLVTVSSGGGGSGGGGSGGGASNFMLTQPHSVSESPGKTVTISCTRSSGRIASNYVQWYQQRPGSSPTTVIYEDNQRPSGVPDRFSGSIDSSSNSASLTISGLKTEDEADYYCQSYDSSNVVFGGGTQLTVLGQPAAAGGGGSQVQLQQSGAELVRPGSSVKISCKASGYAFSSYWMNWVKQRPGQGLEWIGQIWPGDGDTNYNGKFKGKATLTADESSSTAYMQLSSLASEDSAVYFCARRETTTVGRYYYAMDYWGQGTSVTVSSASAAVECPPCPAPPVAGPSVFLFPPKPKDTLMISRTPEVTCVVVDVSHEDPEVQFNWYVDGVEVHNAKTKPREEQFNSTFRVVSVLTVVHQDWLNGKEYKCKVSNKGLPAPIEKTISKTKGQPREPQVYTLPPSREEMTKNQVSLTCLVKGFYPSDIAVEWESNGQPENNYKTTPPMLDSDGSFFLYSKLTVDKSRWQQGNVFSCSVMHEALHNHYTQKSLSLSPGK
B8: 309_01_G04 (bispecific antibody)
chain: DIQLTQTPASLAVSLGQRATISCKASQSVDYDGDSYLNWYQQIPGQPPKLLIYDASNLVSGIPPRFSGSGSGTDFTLNIHPVEKVDAATYHCQQSTEDPWTFGGGTKLEIKGGSGGAMAEVQLVESGGGVVQPGRSLRLSCAASGFTVSSNYMSWVRQAPGKGLEWVSAISGSGGSTYYADSVKGRFTTSRDNSKNTLYLQMNSLRAEDTAIYYCAKEDYYGGYFDYWGQGTMVTVSSGGGGSGGGGSGGGASNFMLTQPHSVSESPGKTVTISCTRSSGSIASNYVQWYQQRPGSSPTTVIYEDNQRPSGVPDRFSGSIDSSSNSASLTISGLKTEDEADYYCQSYDSSNQAVFGGGTKVTVLGQPAAAGGGGSQVQLQQSGAELVRPGSSVKISCKASGYAFSSYWMNWVKQRPGQGLEWIGQIWPGDGDTNYNGKFKGKATLTADESSSTAYMQLSSLASEDSAVYFCARRETTTVGRYYYAMDYWGQGTSVTVSSASAAVECPPCPAPPVAGPSVFLFPPKPKDTLMISRTPEVTCVVVDVSHEDPEVQFNWYVDGVEVHNAKTKPREEQFNSTFRVVSVLTVVHQDWLNGKEYKCKVSNKGLPAPIEKTISKTKGQPREPQVYTLPPSREEMTKNQVSLTCLVKGFYPSDIAVEWESNGQPENNYKTTPPMLDSDGSFFLYSKLTVDKSRWQQGNVFSCSVMHEALHNHYTQKSLSLSPGK

Each binder was assayed against human CD3 receptor complex (human, UniProt P07766 23-207; P09693 23-182; P04234 22-171) (assay: cell-based or functional assay).
Sequence of human CD3 receptor complex (P07766 23-207, chain 1 of 3): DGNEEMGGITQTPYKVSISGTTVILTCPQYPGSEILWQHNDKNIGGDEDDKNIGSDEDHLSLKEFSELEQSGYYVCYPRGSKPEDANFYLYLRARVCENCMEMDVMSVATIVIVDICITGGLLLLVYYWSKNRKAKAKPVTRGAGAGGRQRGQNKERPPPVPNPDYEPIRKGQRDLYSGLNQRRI
Sequence of human CD3 receptor complex (P09693 23-182, chain 2 of 3): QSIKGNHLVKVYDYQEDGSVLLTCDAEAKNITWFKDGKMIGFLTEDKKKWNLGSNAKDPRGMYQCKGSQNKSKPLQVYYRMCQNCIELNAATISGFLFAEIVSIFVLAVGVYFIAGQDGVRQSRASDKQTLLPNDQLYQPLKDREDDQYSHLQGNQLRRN
Sequence of human CD3 receptor complex (P04234 22-171, chain 3 of 3): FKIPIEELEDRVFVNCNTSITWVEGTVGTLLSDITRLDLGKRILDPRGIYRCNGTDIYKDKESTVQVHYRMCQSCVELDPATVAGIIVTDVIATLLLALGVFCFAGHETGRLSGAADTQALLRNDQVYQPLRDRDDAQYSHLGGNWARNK

First: B1
Second: B2
The “Activity (EC50 for activation of Jurkat line cells, pM)” value (“Activity” for short) of the first is lower: 1.5 pM for the first, 13.8 pM for the second.

First: B3
Second: B4
The “Activity” value of the first is lower: 1 pM for the first, 4.3 pM for the second.

First: B5
Second: B6
The “Activity” value of the first is higher: 7.9 pM for the first, 2.2 pM for the second.

Going from B7 to B8, the “Activity” value falls from 3 pM to 2 pM.
